# B1: AAL: Aleuria aurantia lectin, has affinity for fucose α1→6 but is not specific; from J-OIL MILLS, Inc. (protein)
# chain: PTEFLYTSKIAAISWAATGGRQQRVYFQDLNGKIREAQRGGDNPWTGGSSQNVIGEAKLFSPLAAVTWKSAQGIQIRVYCVNKDNILSEFVYDGSKWITGQLGSVGVKVGSNSKLAALQWGGSESAPPNIRVYYQKSNGSGSSIHEYVWSGKWTAGASFGSTVPGTGIGATAIGPGRLRIYYQATDNKIREHCWDSNSWYVGGFSASASAGVSIAAISWGSTPNIRVYWQKGREELYEAAYGGSWNTPGQIKDASRPTPSLPDTFIAANSSGNIDISVFFQASGVSLQQWQWISGKGWSIGAVVPTGTPAGW
# What was measured:
# FAC binding constant = conditions: at 25° C.
# Method: (§1) Details of the FAC method are described in Patent Document 2 filed by some of the present applicants, for example.
# (§2) Binding constants (at 25° C.) of PhoSL, SRL, NSL and LSL belonging to the fucose α1→6 specific lectin for various sugar chains are shown in Tables 2 to 5.
# [1] = Binding to sugar chains, summary of Tables 2 to 5; conditions: sugar chains No. 015, 201 to 203, and 401 to 418
# Method: as §1, §2
# (§3) The AAL and AOL bind to the fucose α1→6 sugar chains (sugar chains No. 015, 201 to 203, and 401 to 418), as well as to the glycolipid-type sugar chain excluding the fucose α1→6 (sugar chains No. 718, 722, 723, 727, 909, 910 and 933). The LCL and PSL bind to the fucose α1→6 sugar chain, as well as to sugar chain excluding the α1→6 fucose (sugar chains No. 003, and 005 to 014).
# Furthermore, the binding constant of the fucose α1→6 specific lectin is not decreased even if a sialic acid is added to the fucose α1→6 sugar chain (sugar chains No. 601 and 602). In addition, the fucose α1→6 specific lectin also strongly binds to the triple-strand (sugar chains No. 407 to 413) and the four-strand (sugar chains No. 418) of the fucose uα1→6 sugar chain.
# [2] = Binding to sugar chains, summary of Tables 2 to 5; conditions: sugar chains No. 718, 722, 723, 727, 909, 910 and 933
# Method: as §1, §2, §3
# [3] = sugar chain having fucose other than α1→6 fucose
molecule,measurement,setting,value
B1,Binding constant for sugar chain No. 728,FAC binding constant; Table 3: sugar chain having fucose other than α1→6 fucose,<1000 M⁻¹
same,Binding constant for sugar chain No. 419,FAC binding constant; [3],<1000 M⁻¹
same,Binding constant for sugar chain No. 420,FAC binding constant; [3],<1000 M⁻¹
same,Binding constant for sugar chain No. 718,FAC binding constant; [3],65000 M⁻¹
same,Binding constant for sugar chain No. 719,FAC binding constant; [3],<1000 M⁻¹
same,Binding constant for sugar chain No. 720,FAC binding constant; [3],<1000 M⁻¹
same,Binding constant for sugar chain No. 721,FAC binding constant; [3],<1000 M⁻¹
same,Binding constant for sugar chain No. 722,FAC binding constant; [3],<1000 M⁻¹
same,Binding constant for sugar chain No. 723,FAC binding constant; [3],35000 M⁻¹
same,Binding constant for sugar chain No. 726,FAC binding constant; [3],<1000 M⁻¹
same,Binding constant for sugar chain No. 727,FAC binding constant; [3],130000 M⁻¹
same,Binding constant for sugar chain No. 729,FAC binding constant; [3],<1000 M⁻¹
same,Binding constant for sugar chain No. 730,FAC binding constant; [3],<1000 M⁻¹
same,Binding constant for sugar chain No. 731,FAC binding constant; [3],<1000 M⁻¹
same,Binding constant for sugar chain No. 739,FAC binding constant; [3],<1000 M⁻¹
same,Binding constant for sugar chain No. 909,FAC binding constant; [3],310000 M⁻¹
same,Binding constant for sugar chain No. 910,FAC binding constant; [3],90000 M⁻¹
same,Binding constant for sugar chain No. 931,FAC binding constant; [3],<1000 M⁻¹
same,Binding constant for sugar chain No. 932,FAC binding constant; [3],<1000 M⁻¹
same,Binding constant for sugar chain No. 933,FAC binding constant; [3],210000 M⁻¹
same,Binding constant for sugar chain No. 001,FAC binding constant; sugar chain having no fucose,<1000 M⁻¹
same,Binding constant for sugar chain No. 002,FAC binding constant; sugar chain having no fucose,<1000 M⁻¹
same,Binding constant for sugar chain No. 003,FAC binding constant; sugar chain having no fucose,<1000 M⁻¹
same,Binding constant for sugar chain No. 004,FAC binding constant; sugar chain having no fucose,<1000 M⁻¹
same,Binding constant for sugar chain No. 005,FAC binding constant; sugar chain having no fucose,<1000 M⁻¹
same,Binding constant for sugar chain No. 006,FAC binding constant; sugar chain having no fucose,<1000 M⁻¹
same,Binding constant for sugar chain No. 007,FAC binding constant; sugar chain having no fucose,<1000 M⁻¹
same,Binding constant for sugar chain No. 008,FAC binding constant; sugar chain having no fucose,<1000 M⁻¹
same,Binding constant for sugar chain No. 009,FAC binding constant; sugar chain having no fucose,<1000 M⁻¹
same,Binding constant for sugar chain No. 010,FAC binding constant; sugar chain having no fucose,<1000 M⁻¹
same,Binding constant for sugar chain No. 011,FAC binding constant; sugar chain having no fucose,<1000 M⁻¹
same,Binding constant for sugar chain No. 012,FAC binding constant; sugar chain having no fucose,<1000 M⁻¹
same,Binding constant for sugar chain No. 013,FAC binding constant; sugar chain having no fucose,<1000 M⁻¹
same,Binding constant for sugar chain No. 014,FAC binding constant; sugar chain having no fucose,<1000 M⁻¹
same,Binding constant for sugar chain No. 101,FAC binding constant; sugar chain having no fucose,<1000 M⁻¹
same,Binding constant for sugar chain No. 103,FAC binding constant; sugar chain having no fucose,<1000 M⁻¹
same,Binding constant for sugar chain No. 104,FAC binding constant; sugar chain having no fucose,<1000 M⁻¹
same,Binding constant for sugar chain No. 105,FAC binding constant; sugar chain having no fucose,<1000 M⁻¹
same,Binding constant for sugar chain No. 107,FAC binding constant; sugar chain having no fucose,<1000 M⁻¹
same,Binding constant for sugar chain No. 108,FAC binding constant; sugar chain having no fucose,<1000 M⁻¹
same,Binding constant for sugar chain No. 301,FAC binding constant; sugar chain having no fucose,<1000 M⁻¹
same,Binding constant for sugar chain No. 304,FAC binding constant; sugar chain having no fucose,<1000 M⁻¹
same,Binding constant for sugar chain No. 305,FAC binding constant; sugar chain having no fucose,<1000 M⁻¹
same,Binding constant for sugar chain No. 307,FAC binding constant; sugar chain having no fucose,<1000 M⁻¹
same,Binding constant for sugar chain No. 308,FAC binding constant; sugar chain having no fucose,<1000 M⁻¹
same,Binding constant for sugar chain No. 313,FAC binding constant; sugar chain having no fucose,<1000 M⁻¹
same,Binding constant for sugar chain No. 314,FAC binding constant; sugar chain having no fucose,<1000 M⁻¹
same,Binding constant for sugar chain No. 323,FAC binding constant; sugar chain having no fucose,<1000 M⁻¹
same,Binding constant for sugar chain No. 501,FAC binding constant; sugar chain having no fucose,<1000 M⁻¹
same,Binding constant for sugar chain No. 502,FAC binding constant; sugar chain having no fucose,<1000 M⁻¹
same,Binding constant for sugar chain No. 503,FAC binding constant; sugar chain having no fucose,<1000 M⁻¹
same,Binding constant for sugar chain No. 504,FAC binding constant; sugar chain having no fucose,<1000 M⁻¹
same,Binding constant for sugar chain No. 701,FAC binding constant; sugar chain having no fucose,<1000 M⁻¹
same,Binding constant for sugar chain No. 702,FAC binding constant; sugar chain having no fucose,<1000 M⁻¹
same,Binding constant for sugar chain No. 703,FAC binding constant; sugar chain having no fucose,<1000 M⁻¹
same,Binding constant for sugar chain No. 704,FAC binding constant; sugar chain having no fucose,<1000 M⁻¹
same,Binding constant for sugar chain No. 705,FAC binding constant; sugar chain having no fucose,<1000 M⁻¹
same,Binding constant for sugar chain No. 706,FAC binding constant; sugar chain having no fucose,<1000 M⁻¹
same,Binding constant for sugar chain No. 707,FAC binding constant; sugar chain having no fucose,<1000 M⁻¹
same,Binding constant for sugar chain No. 708,FAC binding constant; sugar chain having no fucose,<1000 M⁻¹
same,Binding constant for sugar chain No. 709,FAC binding constant; sugar chain having no fucose,<1000 M⁻¹
same,Binding constant for sugar chain No. 710,FAC binding constant; sugar chain having no fucose,<1000 M⁻¹
same,Binding constant for sugar chain No. 711,FAC binding constant; sugar chain having no fucose,<1000 M⁻¹
same,Binding constant for sugar chain No. 712,FAC binding constant; sugar chain having no fucose,<1000 M⁻¹
same,Binding constant for sugar chain No. 713,FAC binding constant; sugar chain having no fucose,<1000 M⁻¹
same,Binding constant for sugar chain No. 715,FAC binding constant; sugar chain having no fucose,<1000 M⁻¹
same,Binding constant for sugar chain No. 716,FAC binding constant; sugar chain having no fucose,<1000 M⁻¹
same,Binding constant for sugar chain No. 717,FAC binding constant; sugar chain having no fucose,<1000 M⁻¹
same,Binding constant for sugar chain No. 724,FAC binding constant; sugar chain having no fucose,<1000 M⁻¹
same,Binding constant for sugar chain No. 725,FAC binding constant; sugar chain having no fucose,<1000 M⁻¹
same,Binding constant for sugar chain No. 732,FAC binding constant; sugar chain having no fucose,<1000 M⁻¹
same,Binding constant for sugar chain No. 733,FAC binding constant; sugar chain having no fucose,<1000 M⁻¹
same,Binding constant for sugar chain No. 734,FAC binding constant; sugar chain having no fucose,<1000 M⁻¹
same,Binding constant for sugar chain No. 735,FAC binding constant; sugar chain having no fucose,<1000 M⁻¹
same,Binding constant for sugar chain No. 736,FAC binding constant; sugar chain having no fucose,<1000 M⁻¹
same,Binding constant for sugar chain No. 737,FAC binding constant; sugar chain having no fucose,<1000 M⁻¹
same,Binding constant for sugar chain No. 738,FAC binding constant; sugar chain having no fucose,<1000 M⁻¹
same,Binding constant for sugar chain No. 901,FAC binding constant; sugar chain having no fucose,<1000 M⁻¹
same,Binding constant for sugar chain No. 902,FAC binding constant; sugar chain having no fucose,<1000 M⁻¹
same,Binding constant for sugar chain No. 903,FAC binding constant; sugar chain having no fucose,<1000 M⁻¹
same,Binding constant for sugar chain No. 905,FAC binding constant; sugar chain having no fucose,<1000 M⁻¹
same,Binding constant for sugar chain No. 906,FAC binding constant; sugar chain having no fucose,<1000 M⁻¹
same,Binding constant for sugar chain No. 907,FAC binding constant; sugar chain having no fucose,<1000 M⁻¹
same,Binding constant for sugar chain No. 015,FAC binding constant; sugar chain having α1→6 fucose,91000 M⁻¹
same,Binding constant for sugar chain No. 201,FAC binding constant; sugar chain having α1→6 fucose,51000 M⁻¹
same,Binding constant for sugar chain No. 202,FAC binding constant; sugar chain having α1→6 fucose,54000 M⁻¹
same,Binding constant for sugar chain No. 203,FAC binding constant; sugar chain having α1→6 fucose,66000 M⁻¹
same,Binding constant for sugar chain No. 401,FAC binding constant; sugar chain having α1→6 fucose,55000 M⁻¹
same,Binding constant for sugar chain No. 402,FAC binding constant; sugar chain having α1→6 fucose,11000 M⁻¹
same,Binding constant for sugar chain No. 403,FAC binding constant; sugar chain having α1→6 fucose,52000 M⁻¹
same,Binding constant for sugar chain No. 404,FAC binding constant; sugar chain having α1→6 fucose,65000 M⁻¹
same,Binding constant for sugar chain No. 405,FAC binding constant; sugar chain having α1→6 fucose,56000 M⁻¹
same,Binding constant for sugar chain No. 406,FAC binding constant; sugar chain having α1→6 fucose,47000 M⁻¹
same,Binding constant for sugar chain No. 407,FAC binding constant; sugar chain having α1→6 fucose,45000 M⁻¹
same,Binding constant for sugar chain No. 410,FAC binding constant; sugar chain having α1→6 fucose,38000 M⁻¹
same,Binding constant for sugar chain No. 413,FAC binding constant; sugar chain having α1→6 fucose,32000 M⁻¹
same,Binding constant for sugar chain No. 418,FAC binding constant; sugar chain having α1→6 fucose,<1000 M⁻¹
same,Binding constant for sugar chain No. 601,FAC binding constant; sugar chain having α1→6 fucose,61000 M⁻¹
same,Binding constant for sugar chain No. 602,FAC binding constant; sugar chain having α1→6 fucose,52000 M⁻¹
same,binding to the fucose α1→6 sugar chains (in words),[1],bind
same,binding to the glycolipid-type sugar chain excluding the fucose α1→6 (in words),[2],bind
